Experimental data reported in patent US20260234242A1 (HAINAN SIMCERE ZAIMING PHARMACEUTICAL, published 2026).

How the values were obtained:
[1] = target: T1, human CDH6 on tumor cells (OVCAR3 cells, PA-1 cells) (human, UniProt P55285 54-790); assay: FACS, OVCAR3 cells
T1 sequence: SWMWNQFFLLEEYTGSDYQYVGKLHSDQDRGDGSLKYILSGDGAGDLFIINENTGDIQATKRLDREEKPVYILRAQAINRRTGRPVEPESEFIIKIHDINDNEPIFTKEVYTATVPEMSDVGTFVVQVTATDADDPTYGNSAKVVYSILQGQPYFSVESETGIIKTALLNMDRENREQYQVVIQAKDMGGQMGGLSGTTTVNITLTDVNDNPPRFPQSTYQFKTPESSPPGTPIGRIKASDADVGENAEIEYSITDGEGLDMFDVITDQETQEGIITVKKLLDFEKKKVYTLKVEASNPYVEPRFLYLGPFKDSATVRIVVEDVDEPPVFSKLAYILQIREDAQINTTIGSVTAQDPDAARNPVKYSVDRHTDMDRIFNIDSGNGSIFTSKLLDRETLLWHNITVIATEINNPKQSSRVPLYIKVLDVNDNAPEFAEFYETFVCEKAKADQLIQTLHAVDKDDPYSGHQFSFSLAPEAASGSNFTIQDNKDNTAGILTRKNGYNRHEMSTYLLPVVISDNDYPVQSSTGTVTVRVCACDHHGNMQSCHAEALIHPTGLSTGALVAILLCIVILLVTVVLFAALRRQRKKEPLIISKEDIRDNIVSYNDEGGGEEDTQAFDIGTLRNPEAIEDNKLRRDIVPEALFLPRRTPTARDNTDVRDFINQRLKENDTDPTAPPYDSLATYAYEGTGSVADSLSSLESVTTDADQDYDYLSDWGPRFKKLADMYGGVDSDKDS
Procedure, shortened: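 OVCAR3 (high CDH6) and PA-1 (moderate CDH6) cells in PBS + 2% FBS were incubated with diluted chimeric antibodies for 1 h at 4° C, then with a further reagent for 1 h at 4° C. After washing, mean fluorescence intensity was read by flow cytometry and EC50 values came from curve fitting.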

[2] = target: T2, his-tagged human CDH6 extracellular region protein (hCDH6 ECD-his) (human, UniProt P55285 19-615); assay: ELISA, coated antigen
T2 construct: also called Human CDH6-his; hCDH6-his; not shown: his tag
T2 sequence: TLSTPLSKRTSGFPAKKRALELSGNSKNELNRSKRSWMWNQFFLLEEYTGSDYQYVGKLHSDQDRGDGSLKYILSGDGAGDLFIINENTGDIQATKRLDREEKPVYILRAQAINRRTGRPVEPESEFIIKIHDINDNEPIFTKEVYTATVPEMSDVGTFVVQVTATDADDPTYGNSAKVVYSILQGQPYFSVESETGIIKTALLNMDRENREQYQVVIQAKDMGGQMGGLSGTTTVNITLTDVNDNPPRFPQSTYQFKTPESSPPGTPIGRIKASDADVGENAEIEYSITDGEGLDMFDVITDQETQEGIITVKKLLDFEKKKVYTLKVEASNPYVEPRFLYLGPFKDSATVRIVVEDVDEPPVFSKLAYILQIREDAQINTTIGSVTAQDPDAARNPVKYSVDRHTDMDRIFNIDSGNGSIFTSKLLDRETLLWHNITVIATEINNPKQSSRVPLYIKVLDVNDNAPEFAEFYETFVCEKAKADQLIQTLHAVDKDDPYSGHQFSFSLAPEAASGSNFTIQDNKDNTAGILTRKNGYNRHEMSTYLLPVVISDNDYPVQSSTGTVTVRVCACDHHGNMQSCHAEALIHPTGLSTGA
Procedure, shortened: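 Plates coated overnight at 4 °C with his-tagged CDH6 ECD (human; also cyno and murine, residues 19-615) at 1 μg/mL. Chimeric antibody dilutions bound 2 h at 37 °C; TMB read-out at OD450 nm, EC50 from fitted curves.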

Binder	EC50 [1] [nM]	Max MFI [1] [MFI]	EC50 [2] [nM]	Max OD450 [2] [OD450]
hCDH6-6-H2L2 (antibody, V domains shown, Humanized) VH: EVQLVQSGAEVKKPGASVKVSCKASGYTFTDYYMAWVRQAPGQGLEWMGYIFPNSGGTDYSQKFKGRVTLTVDKSTSTVYMELSSLRSEDTAVYYCARELGADYGDYYAMDHWGQGTTVTVSS VL: DIQMTQSPSSLSASVGDRVTITCRASENIDSYLAWYQQKPGKSPKLLVYSATLLADGVPSRFSGSGSGTDYTLTISSLQPEDFATYYCQHYYRTPPTFGQGTKLEIK	0.56	14300	0.026	1.97
CHI-CDH6-6 (antibody, human IgG1, kappa, V domains shown, also called CHI-hCDH6-6; chimeric antibody of murine CDH6-6) VH: EVQLQQSGPELVKPGDSVKMSCKASGYTFTDYYMAWVRQSHRKSLEWIGYIFPNSGGTDYSQKFKGKATLTVDKSSSTVYMELHSLTSEDSAVYYCARELGADYGDYYAMDHWGQGTSVSVSS VL: DIQMTQSPASLSASVGETVTITCRASENIDSYLAWYQQKQGKSPQLLVYSATLLADGVPSRFSGSGSGTQYSLKINSLKSEDVARYYCQHYYRTPPTFGSGTKLEIKR	0.68	14100	0.028	2.02
